Reference: article PMC6561018, “Structure and Properties of a Natural Competence-Associated Pilin Suggest a Unique Pilus Tip-Associated DNA Receptor” (mBio, 2019)

T1: ComZ (residues 31 to 554), Thermus thermophilus HB27 (Thermus thermophilus HB27, UniProt Q8KPZ1 31-554)
T1 construct: Cloned into pET-22b (NcoI/XhoI); also called recombinant ComZ fragment; comZ-22b construct; source: E. coli T7 Express, purified (HisTrap HP, SEC); not shown: His6, C-terminal, kept
T1 sequence (looked up): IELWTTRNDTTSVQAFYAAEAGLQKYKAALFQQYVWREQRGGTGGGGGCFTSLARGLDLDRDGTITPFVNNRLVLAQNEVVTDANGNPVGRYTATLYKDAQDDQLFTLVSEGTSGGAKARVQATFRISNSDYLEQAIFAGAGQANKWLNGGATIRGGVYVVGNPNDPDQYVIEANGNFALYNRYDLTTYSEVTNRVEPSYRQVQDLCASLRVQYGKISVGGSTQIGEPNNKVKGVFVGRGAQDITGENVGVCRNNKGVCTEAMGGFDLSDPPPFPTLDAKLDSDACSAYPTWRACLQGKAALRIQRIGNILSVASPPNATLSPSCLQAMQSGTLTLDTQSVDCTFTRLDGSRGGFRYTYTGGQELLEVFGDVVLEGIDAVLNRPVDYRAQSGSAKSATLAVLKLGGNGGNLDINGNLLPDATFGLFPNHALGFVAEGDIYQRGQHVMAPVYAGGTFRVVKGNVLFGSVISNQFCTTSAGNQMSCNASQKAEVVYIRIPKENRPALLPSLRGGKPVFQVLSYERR

B1: PilA2 soluble domain (residues 33 to 193), Thermus thermophilus HB27 (domain or fragment, UniProt Q72JC3 33-193, looked up)
chain: RASAQARFATDAKAAAVQVLERRSAEVLKSEIVPALSPYKDAPLDPDNPSGNWRSFYFVDYYFSCPTRVAPSPKQRGGSVANLRPGLTCSGTETIFGIPVAWDIRGENGILGEGVVTVVVTATHPRGPKVTLGRRVTCYDVYPSPTQDQPAPCPPPGGGRP
notes: Synthetic gene (GeneArt), codon-optimised for E. coli, in pET-22b (BamHI/XhoI); also called recombinant PilA2; source: E. coli Lemo21(DE3), purified (StrepTrap HP, SEC); not shown: Strep-tag II, C-terminal, kept
B2: PilA3 soluble domain (residues 33 to 233), Thermus thermophilus HB27 (domain or fragment, UniProt Q72JC2 33-233, looked up)
chain: ELARNTQARSELQDRVRMVMQVVTADLQMAGARYWNSGNQNQAFSLPLPPLSGSNMGPKDTLTLYYVTSLRDLASACRRVDYGFEGDTLRRSDVNATPSSGSDCTTPPPNSQPLAEGMLALDIQYQCSDGSRKDTPDCGTDAYPRSAKVTVAGYSLTSVTNPGPASLTTVTGKTLACPQGRACYALTQEVLMPNLKPLPTP
notes: Synthetic gene (GeneArt), codon-optimised for E. coli, in pET-22b (BamHI/XhoI); source: E. coli Lemo21(DE3), purified (StrepTrap HP, SEC); not shown: Strep-tag II, C-terminal, kept

Experiments:
[1] = molecular target: T1, ComZ (residues 31 to 554), Thermus …; assay: ITC; MicroCal PEAQ-ITC; 20 aliquots of 2 μl PilA2 (314 μM) titrated into 300 μl ComZ (33 μM), 25°C; fitted assuming a single binding site; details: both partners purified
[2] = molecular target: the molecule itself; assay: SEC; HiLoad 16/600 Superdex 200 PG, 1 ml/min, 25 mM Tris-HCl pH 8.0, 200 mM NaCl, 5% glycerol; proteins incubated together at 4°C for 30 min before the run; each protein also run alone; peaks checked by SDS-PAGE

Binder	Kd [1]	dH [1]	stoichiometry N [1]	binding result [2]
B1	690 nM	2.3 kcal/mol	1.1	–
B2	–	–	–	binds
